Measured values from patent US20240285753A1 (DUKE UNIVERSITY, published 2024).
Like-named read-outs stand apart in the source and are kept apart here.

What was measured:
S2hlx-Ex17 = biological target: T1, S2hlx-Ex17; assay: SPR, mAb captured, antigen as analyte
T1 chain: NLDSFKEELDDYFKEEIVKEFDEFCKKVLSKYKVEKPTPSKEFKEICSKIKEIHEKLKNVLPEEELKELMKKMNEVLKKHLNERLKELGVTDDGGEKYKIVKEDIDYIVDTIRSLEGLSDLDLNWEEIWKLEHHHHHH

S2hlx-Ex20 = biological target: T2, S2hlx-Ex20; assay: SPR, mAb captured, antigen as analyte
T2 chain: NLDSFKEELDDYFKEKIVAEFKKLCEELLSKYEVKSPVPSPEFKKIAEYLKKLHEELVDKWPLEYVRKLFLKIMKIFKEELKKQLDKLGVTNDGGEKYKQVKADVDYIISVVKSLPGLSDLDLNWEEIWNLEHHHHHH

S2hlx-Ex15 = biological target: T3, S2hlx-Ex15; assay: SPR, mAb captured, antigen as analyte
T3 chain: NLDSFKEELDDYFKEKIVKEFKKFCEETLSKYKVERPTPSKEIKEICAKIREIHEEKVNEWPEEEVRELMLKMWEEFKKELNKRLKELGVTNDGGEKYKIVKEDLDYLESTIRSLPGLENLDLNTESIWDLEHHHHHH

HKU-1 spike (2P) = HKU-1 spike (2P) (human coronavirus HKU1); assay: ELISA, coated spike, mAb titrated
S2hlx-15 [1] = biological target: T4, S2hlx-15; assay: ELISA, coated antigen, mAb titrated
T4 chain: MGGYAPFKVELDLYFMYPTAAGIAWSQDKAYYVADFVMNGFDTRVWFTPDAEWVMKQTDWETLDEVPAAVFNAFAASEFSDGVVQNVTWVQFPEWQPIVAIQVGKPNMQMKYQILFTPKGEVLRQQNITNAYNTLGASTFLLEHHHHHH

S2hlx-1 [2] = biological target: T5, S2hlx-1; assay: SPR, mAb captured, antigen as analyte
T5 epitope scaffold: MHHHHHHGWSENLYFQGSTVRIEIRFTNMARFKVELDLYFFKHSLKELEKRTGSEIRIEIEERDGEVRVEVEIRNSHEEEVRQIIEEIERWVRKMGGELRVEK

S2hlx-8 [3] = biological target: T6, S2hlx-8; assay: SPR, mAb captured, antigen as analyte
T6 epitope scaffold: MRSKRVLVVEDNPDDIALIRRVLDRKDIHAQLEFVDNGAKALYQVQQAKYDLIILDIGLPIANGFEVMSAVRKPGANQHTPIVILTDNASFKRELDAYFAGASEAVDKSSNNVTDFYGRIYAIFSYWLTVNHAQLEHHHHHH

S2hlx-13 = biological target: T7, S2hlx-13; assay: SPR, mAb captured, antigen as analyte
T7 epitope scaffold: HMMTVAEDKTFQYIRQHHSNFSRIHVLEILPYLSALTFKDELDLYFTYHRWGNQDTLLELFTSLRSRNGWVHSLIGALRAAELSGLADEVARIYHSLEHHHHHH

S2hlx-1 [4] = biological target: T5, S2hlx-1; assay: SPR, mAb captured, antigen as analyte
S2hlx-8 [5] = biological target: T6, S2hlx-8; assay: SPR, mAb captured, antigen as analyte
S2hlx-14 = assay: SPR, mAb captured, antigen as analyte
S2hlx-Ex15 F1148A = biological target: T8, S2hlx-Ex15 F1148A; assay: ELISA; antigen coated, mAb titrated
T8 epitope scaffold: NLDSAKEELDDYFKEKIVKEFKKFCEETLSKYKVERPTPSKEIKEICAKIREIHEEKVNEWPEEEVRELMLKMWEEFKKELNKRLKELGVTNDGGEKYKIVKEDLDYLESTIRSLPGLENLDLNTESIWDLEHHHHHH

S2hlx-Ex37 = biological target: T9, S2hlx-Ex37; assay: SPR, mAb captured, scaffold as analyte
T9 chain: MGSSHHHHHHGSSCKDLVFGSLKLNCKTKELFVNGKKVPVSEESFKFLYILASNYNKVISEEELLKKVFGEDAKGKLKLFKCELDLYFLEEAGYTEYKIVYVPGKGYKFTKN

S2hlx-Ex25 = biological target: T10, S2hlx-Ex25; assay: SPR, mAb captured, scaffold as analyte
T10 chain: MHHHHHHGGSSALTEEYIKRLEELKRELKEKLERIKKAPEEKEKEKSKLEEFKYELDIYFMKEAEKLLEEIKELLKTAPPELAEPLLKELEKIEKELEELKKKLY

S2hlx-Ex34 = biological target: T11, S2hlx-Ex34; assay: SPR, mAb captured, scaffold as analyte
T11 chain: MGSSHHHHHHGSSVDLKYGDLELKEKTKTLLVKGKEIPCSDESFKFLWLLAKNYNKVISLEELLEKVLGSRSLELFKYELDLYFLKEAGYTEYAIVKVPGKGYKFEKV

S2hlx-Ex54 = biological target: T12, S2hlx-Ex54; assay: SPR, mAb captured, scaffold as analyte
T12 chain: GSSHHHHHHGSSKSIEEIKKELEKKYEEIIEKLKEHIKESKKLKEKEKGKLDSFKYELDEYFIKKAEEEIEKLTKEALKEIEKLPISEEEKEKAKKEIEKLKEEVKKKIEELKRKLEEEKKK

S2hlx-15 [6] = biological target: T4, S2hlx-15; assay: SPR, mAb captured, scaffold as analyte
S2hlx-Ex8-Trx = biological target: T13, S2hlx-Ex8-Trx; assay: SPR, mAb captured, scaffold as analyte
T13 chain: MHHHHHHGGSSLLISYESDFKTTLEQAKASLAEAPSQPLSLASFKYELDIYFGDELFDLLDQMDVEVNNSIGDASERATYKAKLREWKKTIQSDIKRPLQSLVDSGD

B1: S2P6 mAb (antibody, V domains shown)
VH: EVQLVQSGAEVKKPGASVKVSCKASGYTFTSQYMHWVRQAPGQGLEWIGIINPSGVHTSYAQKFQGRVTLTRDTSTSTLYMELSSLRSEDTAVYYCARGSPKGAFDYWGQGTLVTVSS
VL: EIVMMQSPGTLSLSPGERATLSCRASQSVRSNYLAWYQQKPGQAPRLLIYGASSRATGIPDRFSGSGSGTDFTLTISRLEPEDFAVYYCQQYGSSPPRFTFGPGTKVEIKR
- Kd (S2hlx-Ex17): 29.6 nM
- Kd (S2hlx-Ex20): 10.7 nM
- Kd (S2hlx-Ex15): 4 nM
- EC50 (read off the curve) (HKU-1 spike (2P)): ~0.3 µg/mL
- EC50 (read off the curve) (S2hlx-15 [1]): ~0.1 µg/mL
- Kd (S2hlx-1 [2]): 52.8 nM
- Kd (S2hlx-8 [3]): 63 nM
- Kd (S2hlx-13): 83 nM
- Kd (S2hlx-1 [4]): 52.8 nM
- Kd (S2hlx-8 [5]): 63 nM
- Kd (S2hlx-14): 30 nM
- EC50 (read off the curve) (S2hlx-Ex15 F1148A): ~0.07 µg/mL
- Kd (S2hlx-Ex37): 664 nM
- Kd (S2hlx-Ex25): 612 nM
- Kd (S2hlx-Ex34): 82 nM
- Kd (S2hlx-Ex54): 45 nM
- Kd (S2hlx-15 [6]): 0.7 nM
- Kd (S2hlx-Ex8-Trx): 330 nM
